This passage reports Ki results from publication PMC2650857.

Like-named read-outs stand apart in the source and are kept apart here.

The target of assay [1] is MOP receptor stably expressed in CHO-K1 cells (plasma membranes) (UniProt P35372). Kind of assay: radioligand binding.
Assay [2] shares this target. Put plainly: radioligand binding. This is another data set of the same source.

Sequence of UniProt P35372 (P35372 whole entry): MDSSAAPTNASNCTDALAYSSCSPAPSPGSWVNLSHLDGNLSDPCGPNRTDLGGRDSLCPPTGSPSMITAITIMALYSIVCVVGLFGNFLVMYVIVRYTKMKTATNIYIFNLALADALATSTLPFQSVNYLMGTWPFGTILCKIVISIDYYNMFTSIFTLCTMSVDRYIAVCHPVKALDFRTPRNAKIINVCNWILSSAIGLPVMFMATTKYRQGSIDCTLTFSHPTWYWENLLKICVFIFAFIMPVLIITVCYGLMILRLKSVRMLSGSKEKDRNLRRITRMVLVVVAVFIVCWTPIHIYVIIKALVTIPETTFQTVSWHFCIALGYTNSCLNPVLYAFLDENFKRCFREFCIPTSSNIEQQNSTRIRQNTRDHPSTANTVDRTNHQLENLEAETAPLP

Regarding “DAMGO, [D-Ala^2, NMePHe^4, Gly^5-ol]enkephalin (peptide)”, the Ki (as a rule, the equilibrium dissociation constant of an inhibitor or competing ligand from its target) in assay [1] came to 6.7 nM; in assay [2], 11 nM.
